These results are taken from publication PMC3430690 (PLoS ONE, 2012).

In general, stoichiometry N refers to the number of molecules, sites or subunits per partner or assembly.

For data set [1], the target named is 3xFlag-LRRK1 K650A GTP deficient binding mutant, full-length (human) (UniProt Q38SD2). As to the kind of experiment: immunogold labelling + negative-stain transmission electron microscopy; purified 3xFlag proteins diluted to 5 ng/ul in 20 mM Tris-HCl pH 7.5, 150 mM NaCl, 0.02% Tween 20 or Triton X-100; uranyl acetate stain; anti-Flag M2 primary and 5 nm gold secondary antibody; distances between gold particles and particle diameters measured.

In data set [2] the target is 3xFlag-LRRK1 wild-type (leucine-rich repeat kinase 1), full-length (human) (UniProt Q38SD2). Described as above.
The target in data set [3] is 3xFlag-LRRK2 G2019S pathogenic mutant, full-length (human) (UniProt Q5S007). Described as above. Conditions: remark: other sources report otherwise.
Data set [4] deals with 3xFlag-LRRK2 K1906M kinase dead mutant, full-length (human) (UniProt Q5S007). The data set is described as above.
Data set [5] addresses 3xFlag-LRRK2 T1348N GTP deficient binding mutant, full-length (human) (UniProt Q5S007). The data set is described as above.
In another data set the target is T1, 3xFlag-LRRK2 (Homo sapiens, UniProt Q5S007).
T1 construct: homodimer
T1 sequence (Q5S007 whole entry): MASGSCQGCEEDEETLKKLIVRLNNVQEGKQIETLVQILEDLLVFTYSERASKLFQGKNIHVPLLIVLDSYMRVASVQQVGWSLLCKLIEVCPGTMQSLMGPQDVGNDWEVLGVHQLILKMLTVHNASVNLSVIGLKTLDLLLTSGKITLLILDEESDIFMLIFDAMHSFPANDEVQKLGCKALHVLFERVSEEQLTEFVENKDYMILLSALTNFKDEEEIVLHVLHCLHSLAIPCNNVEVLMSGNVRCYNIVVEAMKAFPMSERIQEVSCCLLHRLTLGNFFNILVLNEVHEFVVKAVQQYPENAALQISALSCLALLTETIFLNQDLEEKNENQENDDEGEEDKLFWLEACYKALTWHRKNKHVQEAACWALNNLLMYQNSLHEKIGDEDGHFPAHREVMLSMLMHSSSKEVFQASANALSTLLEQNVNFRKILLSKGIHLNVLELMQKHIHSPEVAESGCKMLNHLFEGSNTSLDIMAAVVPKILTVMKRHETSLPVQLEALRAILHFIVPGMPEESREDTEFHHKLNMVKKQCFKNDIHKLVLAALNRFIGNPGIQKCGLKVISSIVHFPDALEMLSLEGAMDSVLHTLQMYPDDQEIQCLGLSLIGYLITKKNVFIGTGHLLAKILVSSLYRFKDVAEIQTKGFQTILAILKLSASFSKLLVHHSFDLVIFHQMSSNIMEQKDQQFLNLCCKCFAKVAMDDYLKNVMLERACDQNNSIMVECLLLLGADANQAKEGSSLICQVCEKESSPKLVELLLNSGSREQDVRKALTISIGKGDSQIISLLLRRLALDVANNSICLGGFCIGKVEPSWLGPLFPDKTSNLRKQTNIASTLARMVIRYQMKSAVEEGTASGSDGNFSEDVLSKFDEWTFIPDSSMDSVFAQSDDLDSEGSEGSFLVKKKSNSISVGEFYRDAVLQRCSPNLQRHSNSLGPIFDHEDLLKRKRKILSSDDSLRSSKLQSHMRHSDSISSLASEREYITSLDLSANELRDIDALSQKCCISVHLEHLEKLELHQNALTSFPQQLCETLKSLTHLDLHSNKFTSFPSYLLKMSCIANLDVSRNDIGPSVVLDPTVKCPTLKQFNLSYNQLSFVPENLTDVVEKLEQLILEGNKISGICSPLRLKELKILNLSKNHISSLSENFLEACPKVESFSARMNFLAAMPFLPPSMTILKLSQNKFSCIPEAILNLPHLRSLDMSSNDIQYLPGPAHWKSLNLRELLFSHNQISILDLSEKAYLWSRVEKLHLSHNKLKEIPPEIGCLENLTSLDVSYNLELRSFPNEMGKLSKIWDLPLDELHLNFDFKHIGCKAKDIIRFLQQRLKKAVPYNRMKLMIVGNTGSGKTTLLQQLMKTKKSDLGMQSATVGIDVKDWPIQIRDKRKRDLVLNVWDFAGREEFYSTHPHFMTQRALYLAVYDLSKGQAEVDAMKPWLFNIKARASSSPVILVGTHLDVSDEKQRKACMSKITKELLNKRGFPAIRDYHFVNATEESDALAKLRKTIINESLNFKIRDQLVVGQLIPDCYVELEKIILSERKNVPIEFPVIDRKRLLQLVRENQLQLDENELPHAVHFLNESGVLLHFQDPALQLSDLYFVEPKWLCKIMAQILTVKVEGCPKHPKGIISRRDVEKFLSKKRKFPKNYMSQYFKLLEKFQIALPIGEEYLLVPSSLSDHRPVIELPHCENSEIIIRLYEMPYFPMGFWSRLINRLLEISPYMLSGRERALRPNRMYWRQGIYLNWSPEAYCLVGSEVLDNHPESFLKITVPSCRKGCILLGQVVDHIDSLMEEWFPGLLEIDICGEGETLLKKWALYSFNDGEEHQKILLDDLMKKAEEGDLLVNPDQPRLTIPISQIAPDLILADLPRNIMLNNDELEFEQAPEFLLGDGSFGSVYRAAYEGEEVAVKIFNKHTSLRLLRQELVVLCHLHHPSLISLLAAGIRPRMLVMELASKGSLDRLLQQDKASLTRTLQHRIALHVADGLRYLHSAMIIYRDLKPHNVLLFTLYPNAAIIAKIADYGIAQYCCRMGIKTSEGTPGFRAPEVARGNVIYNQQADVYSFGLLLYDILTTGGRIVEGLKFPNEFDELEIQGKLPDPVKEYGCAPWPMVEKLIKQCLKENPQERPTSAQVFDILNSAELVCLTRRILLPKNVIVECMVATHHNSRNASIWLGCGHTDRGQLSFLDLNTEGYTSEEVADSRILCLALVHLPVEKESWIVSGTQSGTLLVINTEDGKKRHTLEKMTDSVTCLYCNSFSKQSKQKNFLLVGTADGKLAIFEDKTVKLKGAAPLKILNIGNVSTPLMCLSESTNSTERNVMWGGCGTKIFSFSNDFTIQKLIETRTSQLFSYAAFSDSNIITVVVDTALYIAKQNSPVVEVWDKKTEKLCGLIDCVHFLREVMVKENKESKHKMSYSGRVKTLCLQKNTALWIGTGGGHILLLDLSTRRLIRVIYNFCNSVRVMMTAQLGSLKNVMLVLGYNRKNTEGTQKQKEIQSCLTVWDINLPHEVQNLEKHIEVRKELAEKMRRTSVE
Nature of the data set: pulldown from cell lysate on ATP-agarose, competed by free ATP. In kind it is binding. Conditions: ATP-depleted lysate, pH 7.4, 5 mM MgCl2, 4°C; competed by 1 mM ATP, not GTP; kinase domain site.

For a further data set, the target named is T2, 3xFlag-LRRK1 (Homo sapiens, UniProt Q38SD2).
T2 construct: homodimer
T2 sequence (Q38SD2 28-2015): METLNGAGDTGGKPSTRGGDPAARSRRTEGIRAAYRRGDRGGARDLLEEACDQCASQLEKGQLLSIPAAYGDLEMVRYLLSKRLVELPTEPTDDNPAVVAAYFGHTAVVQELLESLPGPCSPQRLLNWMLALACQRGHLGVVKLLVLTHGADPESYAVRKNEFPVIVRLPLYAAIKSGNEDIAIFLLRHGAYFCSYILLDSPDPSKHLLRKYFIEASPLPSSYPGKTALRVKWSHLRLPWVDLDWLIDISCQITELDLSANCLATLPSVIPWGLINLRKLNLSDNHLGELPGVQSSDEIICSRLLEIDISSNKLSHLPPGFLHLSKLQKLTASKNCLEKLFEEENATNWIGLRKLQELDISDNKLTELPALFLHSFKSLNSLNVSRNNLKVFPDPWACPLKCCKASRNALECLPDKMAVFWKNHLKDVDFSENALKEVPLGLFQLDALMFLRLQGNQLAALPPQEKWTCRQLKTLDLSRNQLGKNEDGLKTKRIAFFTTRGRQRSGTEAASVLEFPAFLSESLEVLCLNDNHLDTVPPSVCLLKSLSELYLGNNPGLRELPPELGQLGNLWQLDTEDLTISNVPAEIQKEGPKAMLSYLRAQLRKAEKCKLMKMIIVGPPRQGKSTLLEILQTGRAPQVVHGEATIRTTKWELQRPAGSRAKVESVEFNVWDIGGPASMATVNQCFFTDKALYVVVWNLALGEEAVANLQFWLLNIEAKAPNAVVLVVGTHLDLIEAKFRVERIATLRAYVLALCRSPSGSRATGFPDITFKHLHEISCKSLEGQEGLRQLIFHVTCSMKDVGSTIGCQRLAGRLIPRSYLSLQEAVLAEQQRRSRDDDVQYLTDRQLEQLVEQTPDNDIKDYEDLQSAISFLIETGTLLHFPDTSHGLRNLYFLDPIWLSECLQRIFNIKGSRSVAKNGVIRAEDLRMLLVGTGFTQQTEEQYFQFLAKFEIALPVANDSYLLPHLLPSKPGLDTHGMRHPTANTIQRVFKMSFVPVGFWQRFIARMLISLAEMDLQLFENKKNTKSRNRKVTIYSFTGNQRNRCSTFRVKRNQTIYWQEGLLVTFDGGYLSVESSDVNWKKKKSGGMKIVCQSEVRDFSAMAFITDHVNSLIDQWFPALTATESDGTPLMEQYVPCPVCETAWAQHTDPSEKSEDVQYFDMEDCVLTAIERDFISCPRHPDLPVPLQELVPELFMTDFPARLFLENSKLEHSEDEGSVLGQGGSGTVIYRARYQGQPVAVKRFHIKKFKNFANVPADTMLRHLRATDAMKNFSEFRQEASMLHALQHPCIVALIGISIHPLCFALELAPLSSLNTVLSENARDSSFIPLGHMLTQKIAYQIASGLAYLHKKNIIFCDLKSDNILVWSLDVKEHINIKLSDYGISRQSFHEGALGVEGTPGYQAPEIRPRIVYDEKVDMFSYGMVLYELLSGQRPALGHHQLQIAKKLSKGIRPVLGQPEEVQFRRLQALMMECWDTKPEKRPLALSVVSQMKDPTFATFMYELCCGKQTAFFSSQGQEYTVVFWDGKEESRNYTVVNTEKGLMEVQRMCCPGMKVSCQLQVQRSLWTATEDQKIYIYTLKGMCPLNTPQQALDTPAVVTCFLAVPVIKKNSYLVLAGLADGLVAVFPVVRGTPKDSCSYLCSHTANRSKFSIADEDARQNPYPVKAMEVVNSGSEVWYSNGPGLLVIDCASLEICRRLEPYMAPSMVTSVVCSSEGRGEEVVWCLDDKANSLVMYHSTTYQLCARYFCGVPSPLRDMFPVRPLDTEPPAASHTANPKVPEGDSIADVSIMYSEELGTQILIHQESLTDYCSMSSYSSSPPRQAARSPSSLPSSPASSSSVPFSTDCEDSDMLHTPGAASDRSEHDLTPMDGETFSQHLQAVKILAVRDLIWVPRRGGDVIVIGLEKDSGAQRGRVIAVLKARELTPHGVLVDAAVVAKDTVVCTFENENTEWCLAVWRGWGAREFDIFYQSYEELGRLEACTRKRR
Described as above. In kind it is binding. The conditions noted are these: ATP-depleted lysate, pH 7.4, 5 mM MgCl2, 4°C; competed by 1 mM ATP, not GTP; kinase domain site.

Data set [6] deals with the molecule itself. As to the kind of experiment: immunogold labelling + negative-stain transmission electron microscopy; purified 3xFlag proteins diluted to 5 ng/ul in 20 mM Tris-HCl pH 7.5, 150 mM NaCl, 0.02% Tween 20 or Triton X-100; uranyl acetate stain; anti-Flag M2 primary and 5 nm gold secondary antibody; distances between gold particles and particle diameters measured.

In the case of “3xFlag-LRRK1 K650A GTP deficient binding mutant, full-length (from UniProt Q38SD2 1-2015) (enzyme)”, the stoichiometry N in data set [1] was determined as 2.
Consider “3xFlag-LRRK1 wild-type (leucine-rich repeat kinase 1), full-length (from UniProt Q38SD2 1-2015) (enzyme)”, for which the stoichiometry N in data set [2] came out at 2.
On to “3xFlag-LRRK2 G2019S pathogenic mutant, full-length, Q5S007 1-2527”, for which, in data set [3], the stoichiometry N was determined as 2.
On to “3xFlag-LRRK2 K1906M kinase dead mutant, full-length, Q5S007 1-2527”, for which the stoichiometry N in data set [4] was 2.
On to “3xFlag-LRRK2 T1348N GTP deficient binding mutant, full-length, Q5S007 1-2527”, for which, in data set [5], the stoichiometry N amounted to 2.
With `Nc1ncnc2c1ncn2[C@@H]1O[C@H](COP(=O)(O)OP(=O)(O)OP(=O)(O)O)[C@@H](O)[C@H]1O` [ATP], the “pulldown from cell lysate on ATP-agarose, competed by free ATP” value on 3xFlag-LRRK2 and on 3xFlag-LRRK1 was “we confirm binding of both proteins to ATP using different ATP agarose beads” in each case.

B1: 3xFlag-LRRK1 kinase dead mutant (K1269M; printed K1269W in the dimer experiment), full-length (enzyme)
chain: METLNGAGDTGGKPSTRGGDPAARSRRTEGIRAAYRRGDRGGARDLLEEACDQCASQLEKGQLLSIPAAYGDLEMVRYLLSKRLVELPTEPTDDNPAVVAAYFGHTAVVQELLESLPGPCSPQRLLNWMLALACQRGHLGVVKLLVLTHGADPESYAVRKNEFPVIVRLPLYAAIKSGNEDIAIFLLRHGAYFCSYILLDSPDPSKHLLRKYFIEASPLPSSYPGKTALRVKWSHLRLPWVDLDWLIDISCQITELDLSANCLATLPSVIPWGLINLRKLNLSDNHLGELPGVQSSDEIICSRLLEIDISSNKLSHLPPGFLHLSKLQKLTASKNCLEKLFEEENATNWIGLRKLQELDISDNKLTELPALFLHSFKSLNSLNVSRNNLKVFPDPWACPLKCCKASRNALECLPDKMAVFWKNHLKDVDFSENALKEVPLGLFQLDALMFLRLQGNQLAALPPQEKWTCRQLKTLDLSRNQLGKNEDGLKTKRIAFFTTRGRQRSGTEAASVLEFPAFLSESLEVLCLNDNHLDTVPPSVCLLKSLSELYLGNNPGLRELPPELGQLGNLWQLDTEDLTISNVPAEIQKEGPKAMLSYLRAQLRKAEKCKLMKMIIVGPPRQGKSTLLEILQTGRAPQVVHGEATIRTTKWELQRPAGSRAKVESVEFNVWDIGGPASMATVNQCFFTDKALYVVVWNLALGEEAVANLQFWLLNIEAKAPNAVVLVVGTHLDLIEAKFRVERIATLRAYVLALCRSPSGSRATGFPDITFKHLHEISCKSLEGQEGLRQLIFHVTCSMKDVGSTIGCQRLAGRLIPRSYLSLQEAVLAEQQRRSRDDDVQYLTDRQLEQLVEQTPDNDIKDYEDLQSAISFLIETGTLLHFPDTSHGLRNLYFLDPIWLSECLQRIFNIKGSRSVAKNGVIRAEDLRMLLVGTGFTQQTEEQYFQFLAKFEIALPVANDSYLLPHLLPSKPGLDTHGMRHPTANTIQRVFKMSFVPVGFWQRFIARMLISLAEMDLQLFENKKNTKSRNRKVTIYSFTGNQRNRCSTFRVKRNQTIYWQEGLLVTFDGGYLSVESSDVNWKKKKSGGMKIVCQSEVRDFSAMAFITDHVNSLIDQWFPALTATESDGTPLMEQYVPCPVCETAWAQHTDPSEKSEDVQYFDMEDCVLTAIERDFISCPRHPDLPVPLQELVPELFMTDFPARLFLENSKLEHSEDEGSVLGQGGSGTVIYRARYQGQPVAVWRFHIKKFKNFANVPADTMLRHLRATDAMKNFSEFRQEASMLHALQHPCIVALIGISIHPLCFALELAPLSSLNTVLSENARDSSFIPLGHMLTQKIAYQIASGLAYLHKKNIIFCDLKSDNILVWSLDVKEHINIKLSDYGISRQSFHEGALGVEGTPGYQAPEIRPRIVYDEKVDMFSYGMVLYELLSGQRPALGHHQLQIAKKLSKGIRPVLGQPEEVQFRRLQALMMECWDTKPEKRPLALSVVSQMKDPTFATFMYELCCGKQTAFFSSQGQEYTVVFWDGKEESRNYTVVNTEKGLMEVQRMCCPGMKVSCQLQVQRSLWTATEDQKIYIYTLKGMCPLNTPQQALDTPAVVTCFLAVPVIKKNSYLVLAGLADGLVAVFPVVRGTPKDSCSYLCSHTANRSKFSIADEDARQNPYPVKAMEVVNSGSEVWYSNGPGLLVIDCASLEICRRLEPYMAPSMVTSVVCSSEGRGEEVVWCLDDKANSLVMYHSTTYQLCARYFCGVPSPLRDMFPVRPLDTEPPAASHTANPKVPEGDSIADVSIMYSEELGTQILIHQESLTDYCSMSSYSSSPPRQAARSPSSLPSSPASSSSVPFSTDCEDSDMLHTPGAASDRSEHDLTPMDGETFSQHLQAVKILAVRDLIWVPRRGGDVIVIGLEKDSGAQRGRVIAVLKARELTPHGVLVDAAVVAKDTVVCTFENENTEWCLAVWRGWGAREFDIFYQSYEELGRLEACTRKRR
For the molecule B1, the “stoichiometry N” value in data set [6] is 2.
